Key:
[1] = tested on: various anti-gD2 antibodies; experiment: Reactivity of gD variants with anti-gD2 antibodies (competitive ELISA); assay type: binding, human; conditions: for Relative reactivity with antibody No. 82 (gD1-315 wild-type set to 1): FIG. 13; for Reactivity with anti-gD2 antibody 1 / Reactivity with anti-gD2 antibody 5 / Reactivity with anti-gD2 antibody 13 / Reactivity with anti-gD2 antibody 72 / Reactivity with anti-gD2 antibody 75 / Reactivity with anti-gD2 antibody 78 / Reactivity with anti-gD2 antibody 82: immobilized gD variant
Excerpt: Each anti-gD2 monoclonal antibody and each gD variant were expressed using an Expi293 expression system.

HSV-2 MS strain = experiment: Mouse infection-prevention test of modified gD (genital herpes infection model); assay type: in vivo, BALB/c mice; parameters: key to Determination (vs gD1-315) / Determination# (vs gD1-315): ++: minimum effective dose based on the Significant difference test in three-fold common ratio relative to gD1-315(WT) of two or more doses stronger; +: those of one dose stronger; ±: those of an equivalent value
Experimental: Immunogenicity test of the modified gD antigen was performed using the wild-type gD antigen gD1-315 (WT) as a positive control and saline as a negative control. A predetermined amount of antigen was dissolved in saline for injection (saline) with MPLA (10 μg/mouse) and CpG (1 μg/mouse) and immunized to mice at a volume of 200 μL/mouse. BALB/c mice (5 weeks old, female) were used for the study and immunized subcutaneously in back at 2-week intervals for a total of 3 times (N=4 cases per group). Two weeks after the final immunization (third dose), blood was collected and serum was prepared for each individual. The prepared serum was serially diluted and assessed for neutralizing antibody-inducing activity against HSV-2 (50% plaque number-reducing activity).
An infection-prevention test in the preventive administration of modified gD antigen was performed using a mouse genital herpes infection model. Similar to the mouse immunogenicity test described above, mice were immunized with the number of N=10 cases per group. Depo-Provera was inoculated subcutaneously at 2 mg/mouse 6 days prior to viral inoculation to improve the multiplicity of infection upon viral inoculation 2 weeks after final immunization (third dose). 5×10^5 PFU/20 μL HSV-2 MS strain was inoculated transvaginally under anesthesia and observed for 21 days. Infection prevention ability was evaluated using survival time (survival rate) as index.
The infection model of the mouse genital herpes infection model was used to evaluate infection prevention ability of various modified gD in preventive administration. The number of animal cases in each group was set to n=10, and wild-type gD (gD1-315) was used as a positive control and saline was used as a negative control. The experiments were performed a total of four times (experiments 1-4) and four doses of 0.1 μg/mouse/time, 0.03 μg/mouse/time, 0.01 μg/mouse/time and 0.003 μg/mouse/time were set for all of the positive control, negative control, and subject modified gD antigen. Depo-Provera was inoculated subcutaneously at 2 mg/mouse 6 days prior to viral inoculation to improve the multiplicity of infection upon viral inoculation 2 weeks after final immunization (third dose). 5×10^5 PFU/20 HSV-2 MS strain was inoculated transvaginally under anesthesia and observed for 21 days. Infection prevention ability was evaluated using survival time (survival rate) as index. Mean values of those were plotted in the graph. A Significant difference test for the negative control group was performed by the Kaplan-Meier method, and those with a minimum effective dose based on the Significant difference test in three-fold common ratio relative to wild type gD of two or more doses stronger were determined to be “++”, those of one dose stronger were determined to be “+”, and those of an equivalent value were determined to be “±”.

[2] = Experiment 2, 0.003 μg/head/time
[3] = Experiment 2, 0.01 μg/head/time
[4] = Experiment 2, 0.03 μg/head/time
[5] = Experiment 1, 0.003 μg/head/time
[6] = Experiment 1, 0.01 μg/head/time
[7] = Experiment 1, 0.03 μg/head/time
[8] = Experiment 4, 0.01 μg/head/time
[9] = Experiment 4, 0.03 μg/head/time
[10] = Experiment 4, fourth dose line, 0.03 μg/head/time

Molecule | Relative reactivity with antibody No. 82 (gD1-315 wild-type set to 1) [1] | Reactivity with anti-gD2 antibody 1 [1] | Reactivity with anti-gD2 antibody 5 [1] | Reactivity with anti-gD2 antibody 13 [1] | Reactivity with anti-gD2 antibody 72 [1] | Reactivity with anti-gD2 antibody 75 [1] | Reactivity with anti-gD2 antibody 78 [1] | Reactivity with anti-gD2 antibody 82 [1] | further results
gD1-315v3-55V: Table 12: glycochain D, F, T cell epitope peptide and V231W (protein, left off: small tags and cut ends) KYALADPSLKMADPNRFRGKNLPVLDQLTDPPGVKRVYHIQPSLEDPFQNASIPITVYYAVLERACRSVLLHAPSEAPQIVRGASDEARKHTYNLTIAWYRMGDNCAIPITVMEYTECPYNKSLGVCPIRTQPRWSYYDSFSAVSEDNLGFLMHAPAFETAGTYLRLVKINDWTEITQFILEHRARASCKYALPLRIPPAACLTSKAYQQGVTVDSIGMLPRFIPENQRTWALYSLKIAGWHGPKPPYTSTLLPPELSDTTNATQPELVPEDPEDSALLEDPAGTVSSQIPPNWHIPSIQDVAPHHAPAAPSNPGGPGPGIAFWVRRRAQMAPKPLRIAFWVRRRAQMAPKPLRHHHHHH | slightly reduced | + ((+): 70% or more) | − ((−): less than 30%) | + ((+): 70% or more) | ± ((±): 30% or more and less than 70%) | ± ((±): 30% or more and less than 70%) | − ((−): less than 30%) | + ((+): 70% or more) | Mean survival time (HSV-2 MS strain; [2]): 7 days; Significant difference test (vs saline) (HSV-2 MS strain; [2]): N.S.; Mean survival time (HSV-2 MS strain; [3]): >16.5 days; Significant difference test (vs saline) (HSV-2 MS strain; [3]): N.S.; Mean survival time (HSV-2 MS strain; [4]): >22 days; Significant difference test (vs saline) (HSV-2 MS strain; [4]): ** (** 0.001 = < p < 0.01); Mean survival time (HSV-2 MS strain; Experiment 2, 0.1 μg/head/time): >22 days; Significant difference test (vs saline) (HSV-2 MS strain; Experiment 2, 0.1 μg/head/time): *** (*** p < 0.001); Determination# (vs gD1-315) (HSV-2 MS strain; Experiment 2, minimum effective dose relative to gD1-315(WT)): +
gD1-315v5-55V: gD1-315 with glycochains at SC-A, SC-F, T cell epitope peptide DP5 and V231W (protein, left off: small tags and cut ends) KYALADPSLKMADPNRFRGKNLPVLDQLTDPPGVKRVYHIQPSLEDPFQNASIPITVYYAVLERACRSVLLHAPSEAPQIVRGASDEARKHTYNLTIAWYRMGDNCAIPITVMEYTECPYNKSLGVCPIRTQPRWSYYDSFSAVSEDNLGFLMHAPAFETAGTYLRLVKINDWTEITQFILEHRANASCKYALPLRIPPAACLTSKAYQQGVTVDSIGMLPRFIPENQRTWALYSLKIAGWHGPKPPYTSTLLPPELSDTTNATQPELVPEDPEDSALLEDPAGTVSSQIPPNWHIPSIQDVAPHHAPAAPSNPGGPGPGIAFWVRRRAQMAPKPLRIAFWVRRRAQMAPKPLRHHHHHH | slightly reduced | + ((+): 70% or more) | − ((−): less than 30%) | + ((+): 70% or more) | + ((+): 70% or more) | − ((−): less than 30%) | − ((−): less than 30%) | + ((+): 70% or more) | Mean survival time (HSV-2 MS strain; [5]): 10 days; Significant difference test (vs saline) (HSV-2 MS strain; [5]): ** (** 0.001 = < p < 0.01); Mean survival time (HSV-2 MS strain; [6]): >21 days; Significant difference test (vs saline) (HSV-2 MS strain; [6]): *** (*** p < 0.001); Mean survival time (HSV-2 MS strain; [7]): >21 days; Significant difference test (vs saline) (HSV-2 MS strain; [7]): *** (*** p < 0.001); Mean survival time (HSV-2 MS strain; Experiment 1, 0.1 μg/head/time): >21 days; Significant difference test (vs saline) (HSV-2 MS strain; Experiment 1, 0.1 μg/head/time): *** (*** p < 0.001); Determination (vs gD1-315) (HSV-2 MS strain; Experiment 1, minimum effective dose relative to gD1-315(WT)): ++; Mean survival time (HSV-2 MS strain; [8]): >21 days; Significant difference test (vs saline) (HSV-2 MS strain; [8]): * (* 0.01 = < p < 0.05); Mean survival time (HSV-2 MS strain; [9]): >21 days; Significant difference test (vs saline) (HSV-2 MS strain; [9]): *** (*** p < 0.001); Mean survival time (HSV-2 MS strain; Experiment 4, 0.1 μg/head/time): >21 days; Significant difference test (vs saline) (HSV-2 MS strain; Experiment 4, 0.1 μg/head/time): *** (*** p < 0.001); Mean survival time (HSV-2 MS strain; [10]): 8.5 days; Significant difference test (vs saline) (HSV-2 MS strain; [10]): N.S.; Determination# (vs gD1-315) (HSV-2 MS strain; Experiment 4, minimum effective dose relative to gD1-315(WT)): ++
gD1-315V (protein) KYALADPSLKMADPNRFRGKNLPVLDQLTDPPGVKRVYHIQPSLEDPFQPPSIPITVYYAVLERACRSVLLHAPSEAPQIVRGASDEARKHTYNLTIAWYRMGDNCAIPITVMEYTECPYNKSLGVCPIRTQPRWSYYDSFSAVSEDNLGFLMHAPAFETAGTYLRLVKINDWTEITQFILEHRARASCKYALPLRIPPAACLTSKAYQQGVTVDSIGMLPRFIPENQRTWALYSLKIAGWHGPKPPYTSTLLPPELSDTTNATQPELVPEDPEDSALLEDPAGTVSSQIPPNWHIPSIQDVAPHHAPAAPSNPGHHHHHH |  | + ((+): 70% or more) | + ((+): 70% or more) | + ((+): 70% or more) | + ((+): 70% or more) | + ((+): 70% or more) | + ((+): 70% or more) | + ((+): 70% or more) | 
gD1-315v5V: gD1-315 with glycochains at SC-A, SC-F and V231W (protein) KYALADPSLKMADPNRFRGKNLPVLDQLTDPPGVKRVYHIQPSLEDPFQNASIPITVYYAVLERACRSVLLHAPSEAPQIVRGASDEARKHTYNLTIAWYRMGDNCAIPITVMEYTECPYNKSLGVCPIRTQPRWSYYDSFSAVSEDNLGFLMHAPAFETAGTYLRLVKINDWTEITQFILEHRANASCKYALPLRIPPAACLTSKAYQQGVTVDSIGMLPRFIPENQRTWALYSLKIAGWHGPKPPYTSTLLPPELSDTTNATQPELVPEDPEDSALLEDPAGTVSSQIPPNWHIPSIQDVAPHHAPAAPSNPGHHHHHH |  | + ((+): 70% or more) | − ((−): less than 30%) | + ((+): 70% or more) | ± ((±): 30% or more and less than 70%) | ± ((±): 30% or more and less than 70%) | − ((−): less than 30%) | + ((+): 70% or more) | 
gD1-315v3: gD1-315 with glycochain introduced at P50 (SC-F) (protein) KYALADPSLKMADPNRFRGKNLPVLDQLTDPPGVKRVYHIQPSLEDPFQNASIPITVYYAVLERACRSVLLHAPSEAPQIVRGASDEARKHTYNLTIAWYRMGDNCAIPITVMEYTECPYNKSLGVCPIRTQPRWSYYDSFSAVSEDNLGFLMHAPAFETAGTYLRLVKINDWTEITQFILEHRARASCKYALPLRIPPAACLTSKAYQQGVTVDSIGMLPRFIPENQRTVALYSLKIAGWHGPKPPYTSTLLPPELSDTTNATQPELVPEDPEDSALLEDPAGTVSSQIPPNWHIPSIQDVAPHHAPAAPSNPGHHHHHH |  | + ((+): 70% or more) | − ((−): less than 30%) | + ((+): 70% or more) | − ((−): less than 30%) | − ((−): less than 30%) | − ((−): less than 30%) | + ((+): 70% or more) | 

Source: US11357847B2, “Modified HSV gD protein and vaccine containing same” (KM Biologics Co., Ltd., priority 2017, dated 2022)
